Measured values taken from patent US20260232824A1, “ANTI-CD180 BINDING MOLECULES AND USES THEREOF” (Champions Oncology, Inc., priority 2023, published 2026).

Tests used:
CD19 = target: T1, CD19 (Homo sapiens, UniProt P15391); assay: CD19 expression versus in vitro activity of comparative ADC; type: cell-based; settings: FIG. 27A
T1 construct: endogenous in cells
T1 sequence (P15391 20-556): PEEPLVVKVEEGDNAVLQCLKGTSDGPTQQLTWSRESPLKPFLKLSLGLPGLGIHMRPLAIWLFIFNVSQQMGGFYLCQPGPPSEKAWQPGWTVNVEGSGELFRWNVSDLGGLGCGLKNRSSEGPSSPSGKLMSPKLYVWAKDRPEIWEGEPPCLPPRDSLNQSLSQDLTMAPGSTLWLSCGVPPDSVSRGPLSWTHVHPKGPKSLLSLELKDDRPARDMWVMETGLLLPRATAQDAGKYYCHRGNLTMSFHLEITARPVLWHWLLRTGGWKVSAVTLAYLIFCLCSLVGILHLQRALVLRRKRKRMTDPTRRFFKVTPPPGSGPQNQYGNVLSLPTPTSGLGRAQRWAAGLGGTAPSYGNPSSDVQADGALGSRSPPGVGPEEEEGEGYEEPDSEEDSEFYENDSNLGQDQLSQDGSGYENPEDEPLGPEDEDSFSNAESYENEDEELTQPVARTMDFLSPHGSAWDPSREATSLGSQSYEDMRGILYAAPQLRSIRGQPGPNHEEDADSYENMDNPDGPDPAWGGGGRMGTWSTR

[1] = tested on: panel of cancer cell lines; settings: cited from earlier work

Row | Compound | correlation of CD19 expression with in vitro activity (CD19) | activity in a panel of cancer cell lines [1]
1 | Lonca Tesirine: loncastuximab tesirine-lpyl | CD19 expression correlated with in vitro activity | –
2 | COc1cc2c(cc1OCCCCCOc1cc3c(cc1OC)C(=O)N1C=C(C)C[C@H]1C=N3)N=C[C@@H]1CC(C)=CN1C2=O [SG3199] | – | picomolar activity
